# Experimental data published in US20020031818A1, “Modification of Mdm2 activity” (priority 2000, published 2002).
# B1: p19^ARF: Mdm2-regulating protein; in vitro translated, bacculovirus-expressed or transfected (protein)
# chain: MGRRFLVTVRIQRAGRPLQERVFLVKFVRSRRPRTASCALAFVNMLLRLERILRRGPHRNPGPGDDDGQRSRSSSSAQLRCRFELRGPHYLLPPGARRSAGRLPGHAGGAARVRGSAGCARCLGSPAARLGPRAGTSRHRAIFAFRWVLFVFRWVVFVYRWERRPDRRA
# How the values were obtained:
# GST-Mdm2 = target: T1, GST-Mdm2 (Homo sapiens, UniProt Q00987); test: In vitro ubiquitination of GST-Mdm2 (self-ubiquitination); format: biochemical; conditions: bacculovirus-purified p19ARF added to GST-Mdm2
# T1 construct: made in house
# Text: GST-Mdm2 was subjected to an in vitro ubiquitination reaction using purified forms of E1, E2 and Ub-HA in the presence of ATP. […] Glutathione bead-coupled GST-Mdm2 in its ubiquitinated or non-ubiquitinated forms was washed and analyzed on immunoblots using antibodies to HA (upper panel). Middle panel depicts the level of Mdm2 expression and the lower panel, the level of p19^ARF added to the reaction.
# p53 = p53 ubiquitination and p53 level in EJ cells; format: cell-based, mouse
# Text: FIG. 14A-14E. A. In vitro ubiquitination of Mdm2 is inhibited by p19^ARF. GST-Mdm2 was subjected to an in vitro ubiquitination reaction using purified forms of E1, E2 and Ub-HA in the presence of ATP. Addition of bacculovirus-purified p19^ARF at the indicated concentrations blocked Mdm2 ubiquitination. Glutathione bead-coupled GST-Mdm2 in its ubiquitinated or non-ubiquitinated forms was washed and analyzed on immunoblots using antibodies to HA (upper panel). Middle panel depicts the level of Mdm2 expression and the lower panel, the level of p19^ARF added to the reaction. B. p19^ARF expression increases Mdm2 self-ubiquitination in EJ cells. EJ cells were transfected with the indicated plasmids. Cells were harvested 36 h later and proteins ([…]) were immunoprecipitated using Mdm2 antibodies (2A10). Immunoprecipitated material was washed and proteins loaded onto 10% SDS-PAGE, followed by immunoblot analysis with HA-antibodies to detect covalent HA-ubiquitin conjugation to Mdm2 (upper panel). Middle panel depicts level of immunoprecipitated Mdm2. Lower panel represents western analysis of p19^ARF expression levels. C. In vitro ubiquitination of Mdm2 in the presence of p19^ARF and protein extracts. […] The level of p53 immunoprecipitated was monitored in immunoblots using polyclonal antibodies to p53 (middle). […]
# Mdm2 = Mdm2 (Homo sapiens, UniProt Q00987); test: Co-immunoprecipitation of p19ARF forms with Mdm2; format: cell-based; parameters: expressed in transfected cells; host or cells: 293T; conditions: forced expression of Mdm2 and wt or Δ62 p19ARF
# Sequence of Mdm2 (Q00987 whole entry): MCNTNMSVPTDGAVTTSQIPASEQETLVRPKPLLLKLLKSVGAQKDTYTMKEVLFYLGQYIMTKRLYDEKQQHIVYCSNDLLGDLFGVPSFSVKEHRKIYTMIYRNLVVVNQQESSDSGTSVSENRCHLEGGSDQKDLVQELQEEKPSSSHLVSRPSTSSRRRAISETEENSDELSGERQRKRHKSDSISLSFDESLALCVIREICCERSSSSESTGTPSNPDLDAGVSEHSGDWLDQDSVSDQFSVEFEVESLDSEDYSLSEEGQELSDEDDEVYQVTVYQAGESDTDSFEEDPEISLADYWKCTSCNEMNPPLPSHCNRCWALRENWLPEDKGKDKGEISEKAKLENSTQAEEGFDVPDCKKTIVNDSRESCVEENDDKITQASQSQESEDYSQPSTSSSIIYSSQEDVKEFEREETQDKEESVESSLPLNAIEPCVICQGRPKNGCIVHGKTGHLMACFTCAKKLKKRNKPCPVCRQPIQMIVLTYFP
# T1 sequence (Q00987 whole entry): as above
molecule,measurement,setting,value
B1,Mdm2 ubiquitination in vitro,GST-Mdm2,efficient inhibition of Mdm2 ubiquitination in vitro
same,levels of p53,p53,elevated levels of p53
same,degree of p53 ubiquitination,"p53; Flag-Mdm2, wt p53, HA-Ub, p19ARF constructs 1 μg each",noticeable decrease in the degree of p53 ubiquitination
same,complex of p19ARF form with Mdm2,Mdm2,only the wt form in complex with Mdm2
